In article PMC3223204, “Implantation Serine Proteinase 1 Exhibits Mixed Substrate Specificity that Silences Signaling via Proteinase-Activated Receptors” (PLoS ONE, 2011):

Columns and labels:
rat PAR2 = molecular target: T1, rat PAR2 (Rattus norvegicus, UniProt Q63645); test: Calcium signaling assay, PAR2 activation/disarming in KNRK cells; format: cell-based
T1 construct: expressed in transfected cells; host or cells: KNRK (Kirsten virus-transformed normal rat kidney) cells
T1 sequence (Q63645 26-397): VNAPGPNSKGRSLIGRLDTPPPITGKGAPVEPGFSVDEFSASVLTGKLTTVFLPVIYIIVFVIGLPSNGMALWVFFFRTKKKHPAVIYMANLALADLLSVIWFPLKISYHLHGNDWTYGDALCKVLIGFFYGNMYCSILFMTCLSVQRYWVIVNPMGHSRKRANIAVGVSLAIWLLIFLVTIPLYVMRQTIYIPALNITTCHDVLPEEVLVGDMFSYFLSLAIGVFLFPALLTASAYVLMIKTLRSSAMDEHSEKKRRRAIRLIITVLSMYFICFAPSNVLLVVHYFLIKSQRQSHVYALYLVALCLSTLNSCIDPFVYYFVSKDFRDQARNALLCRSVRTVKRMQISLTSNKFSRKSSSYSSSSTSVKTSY
Text: The Kirsten virus-transformed normal rat kidney (KNRK) epithelial cell line expressing wild-type rat PAR2 (KNRKrPAR2), validated previously for studies of receptor activation was used to evaluate the PAR2-regulating properties of the ISP1 by the methods described previously. Human embryonic kidney cells (HEK293) that express the SV40 T-antigen were kindly provided by Dr. Jonathan Lytton, University of Calgary, Faculty of Medicine, Calgary (Alberta) Canada. The human HEK293 cells, that constitutively express both PAR1 and PAR2, were grown under similar conditions as described for the KNRK cells, but in the absence of geneticin, as outlined for the PAR-mediated calcium signaling procedure described previously. All cells were sub-cultured by dissociation in an isotonic EDTA/saline solution, pH 7.4, without the use of trypsin, to avoid cleavage of PARs.
(§1) Cell lines (grown to about 85% confluence and disaggregated with calcium-free isotonic phosphate-buffered saline containing 0.2 mM EDTA) and rat platelets (harvested from platelet-rich anti-coagulated plasma) were prepared and used as previously described. Cells were incubated for 25 min at room temperature with Fluo-3 acetoxymethyl ester (final concentration, 22 µM) along with 0.4 mM sulfinpyrazone. Cells were washed twice by centrifugation (using the following buffer without calcium) and resuspended in the calcium signaling buffer: 150 mM NaCl, 3 mM KCl, 1.5 mM CaCl2, 20 mM HEPES, 10 mM dextrose, and 0.25 mM sulfinpyrazone, pH 7.4.
Fluorescence was measured at 24 °C with an excitation wavelength of 480 nm and an emission recorded at 530 nm using an Aminco Bowman Series 2 Luminescence spectrometer (ThermoSpectronic Model FA354, Spectronic Unicam, Rochester, NY). The fluorescence signals caused by the addition of test agonists (trypsin, PAR-activating peptide or rISP1, added to 2 ml of a cell suspension of ~3 x 10^5 cells/ml) were compared with the fluorescence peak height yielded by replicate cell suspensions treated with 2 µM ionophore A23187. This concentration of A23187 was at the plateau of its concentration-response curve for a fluorescence response in Fluo-3-loaded cultured cells. Under these conditions, the calculated values for intracellular calcium in the HEK and KNRK cells were [picture] […]
Previous work has shown that the fluorescence response of a cell preparation, as a percentage relative to the signal generated by 2 µM A23187, is a valid reference standard for the comparative determination of calcium signals for all PAR agonists. The cellular calcium response was therefore recorded as a percentage of the response generated by 2 µM ionophore A23187 [6]. […]
Receptor activation was monitored as an enzyme-stimulated increase in fluorescence emission (E530). […]

rat PAR4 = molecular target: T2, rat PAR4 (Rattus norvegicus, UniProt Q920E0); test: Calcium signaling assay, PAR4 activation/disarming in rat platelets; format: cell-based
T2 construct: rat platelets that express only functional PAR4 but neither PAR1 nor PAR2; endogenous in cells; host or cells: rat platelets from platelet-rich plasma
T2 sequence (Q920E0 17-395): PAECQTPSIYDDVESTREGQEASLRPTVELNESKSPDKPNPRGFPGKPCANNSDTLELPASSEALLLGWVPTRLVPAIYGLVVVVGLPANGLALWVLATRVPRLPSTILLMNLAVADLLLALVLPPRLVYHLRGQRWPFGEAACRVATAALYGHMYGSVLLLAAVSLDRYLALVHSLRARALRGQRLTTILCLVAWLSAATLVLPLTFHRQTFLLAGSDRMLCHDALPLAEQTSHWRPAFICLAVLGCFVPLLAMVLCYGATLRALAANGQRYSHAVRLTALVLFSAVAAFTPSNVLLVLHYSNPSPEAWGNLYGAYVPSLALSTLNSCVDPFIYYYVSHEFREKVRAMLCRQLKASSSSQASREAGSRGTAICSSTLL
Experimental: as §1
Fluorescence was measured at 24 °C with an excitation wavelength of 480 nm and an emission recorded at 530 nm using an Aminco Bowman Series 2 Luminescence spectrometer (ThermoSpectronic Model FA354, Spectronic Unicam, Rochester, NY). The fluorescence signals caused by the addition of test agonists (trypsin, PAR-activating peptide or rISP1, added to 2 ml of a cell suspension of ~3 x 10^5 cells/ml) were compared with the fluorescence peak height yielded by replicate cell suspensions treated with 2 µM ionophore A23187. This concentration of A23187 was at the plateau of its concentration-response curve for a fluorescence response in Fluo-3-loaded cultured cells. Under these conditions, the calculated values for intracellular calcium in the HEK and KNRK cells were [picture] 30 nM under basal conditions and about 340 nM upon exposure to A23187 [8, 9].
Previous work has shown that the fluorescence response of a cell preparation, as a percentage relative to the signal generated by 2 µM A23187, is a valid reference standard for the comparative determination of calcium signals for all PAR agonists. The cellular calcium response was therefore recorded as a percentage of the response generated by 2 µM ionophore A23187 [6]. Concentration-effect curves for recombinant enzyme (rISP1) were obtained by measuring the calcium signals generated by measuring the effects (receptor activation or disarming) of increasing enzyme concentrations in replicate cell suspensions (2 ml).
Receptor activation was monitored as an enzyme-stimulated increase in fluorescence emission (E530). As outlined in the following paragraph, receptor disarming or disabling was ascertained by the ability of ISP1 pre-treatment of the cells to abrogate the calcium signal caused by the subsequent addition of either a PAR-activating enzyme (thrombin for PARs 1 & 4; trypsin for PAR2) or a PAR-activating peptide (a reduced response to the activating peptide reflects receptor disabling). […]

trypsin = molecular target: T3, trypsin (Sus scrofa, UniProt P00761); test: Effect of ISP1 on enzyme activity of trypsin; format: biochemical; conditions: data not shown
T3 construct: Porcine trypsin (cat. number T-3030; 14,500 units/mg); purchased Sigma-Aldrich T-3030 (printed as T0303); host or cells: porcine pancreas
T3 sequence (P00761 9-231): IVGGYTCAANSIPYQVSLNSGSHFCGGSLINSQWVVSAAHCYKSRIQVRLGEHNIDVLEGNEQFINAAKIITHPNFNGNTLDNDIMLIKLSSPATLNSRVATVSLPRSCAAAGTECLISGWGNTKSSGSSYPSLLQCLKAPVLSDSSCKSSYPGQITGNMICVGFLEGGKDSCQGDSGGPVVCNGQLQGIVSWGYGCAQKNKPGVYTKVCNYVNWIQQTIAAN

B1: ISP1: recombinant implantation serine proteinase 1 expressed in Pichia pastoris, also known as Mouse Prss28 (protein, UniProt Q924N9 27-274, looked up)
Serine protease 28: KPVGIVGGQRTPPGKWPWQVSLRMYSYEVNSWVHICGGSIIHPQWILTAAHCIQSQDADPAVYRVQVGEVYLYKEQELLNISRIIIHPDYNDVSKRFDLALMQLTALLVTSTNVSPVSLPKDSSTFDSTDQCWLVGWGNLLQRVPLQPPYQLHEVKIPIQDNKSCKRAYRKKSSDEHKAVAIFDDMLCAGTSGRGPCFGDSGGPLVCWKSNKWIQVGVVSKGIDCSNNLPSIFSRVQSSLAWIHQHIQ
modifications: recombinant, Pichia pastoris-expressed
notes: recombinant implantation serine proteinase 1 expressed in Pichia pastoris, also known as Mouse Prss28
Cellular response to PAR2-activating peptide after ISP1 pre-treatment (rat PAR2; SLIGRL-NH2 (10 µM), concentration-dependent): diminished | Activation of a calcium signal via PAR2 (rat PAR2; enzyme alone): did not activate a calcium signal | residual PAR2 activity triggered by trypsin (rat PAR2; pre-treatment with 5 Units/ml ISP1, then trypsin (1.0 units/ml)): ~80% | residual PAR2 activity (% of control) (rat PAR2; pre-treatment with 20 units ISP1/ml, then trypsin (1.0 units/ml)): ~40% | Cellular response to PAR4-activating peptide after ISP1 pre-treatment (rat PAR4; AYPGKF-NH2 (100 µM), concentration-dependent): diminished | Activation of a calcium signal via PAR4 (rat PAR4; enzyme alone): did not activate a calcium signal | residual PAR4 activity triggered by thrombin (rat PAR4; pre-treatment with 5 Units/ml ISP1, then thrombin (0.5 units/ml)): ~75% | residual PAR4 activity (% of control) (rat PAR4; pre-treatment with 20 units ISP1/ml, then thrombin (0.5 units/ml)): ~20% | Inhibitory effect on enzyme activity of trypsin (trypsin): doesn't have any inhibitory effect
